Laboratory results published in patent publication US20220002426A1 (BIOINVENT INTERNATIONAL, published 2022).

Key:
[1] = molecular target: T1, recombinant mouse TNFR2-Fc protein (Sino Biological) (mouse, UniProt P25119 23-258, limits assumed); experiment: ELISA, coated TNFR2-Fc
T1 construct: bought; also called mTNFR2 protein; mTNFR2; not shown: Fc part of the bought fusion protein; not described
T1 sequence (looked up): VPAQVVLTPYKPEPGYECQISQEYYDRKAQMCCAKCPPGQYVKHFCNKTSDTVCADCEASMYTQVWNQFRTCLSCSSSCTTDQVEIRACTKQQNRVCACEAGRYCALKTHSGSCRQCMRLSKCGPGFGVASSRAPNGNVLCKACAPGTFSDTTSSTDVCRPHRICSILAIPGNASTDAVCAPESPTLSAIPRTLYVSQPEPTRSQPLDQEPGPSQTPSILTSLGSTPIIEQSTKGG
Experimental: 96-well plates (Lumitrac 600 LIA plate, Greiner) were coated overnight at 4° C. with recombinant human or mouse TNFR2-Fc protein (Sino Biological) at 1 pmol/well. After washing, titrated doses of anti-TNFR2 mAbs from 20 μg/ml to 0.1 ng/ml (133 nM to 1 pM) were allowed to bind for 1 hour. Plates were then washed again, and bound antibodies were detected with an anti-human-F(ab)-HRP secondary antibody (Jackson ImmunoResearch) diluted in 50 ng/ml. Super Signal ELISA Pico (Thermo Scientific) was used as substrate and the plates were analyzed using Tecan Ultra Microplate reader.

[2] = molecular target: T2, wild type, full length murine TNFR2 (on cells) (mouse, UniProt P25119 23-474); experiment: FACS, activated mouse CD4+ T cells
T2 construct: whole, on cells; also called mTNFR2; mouse TNFR2
T2 sequence (looked up): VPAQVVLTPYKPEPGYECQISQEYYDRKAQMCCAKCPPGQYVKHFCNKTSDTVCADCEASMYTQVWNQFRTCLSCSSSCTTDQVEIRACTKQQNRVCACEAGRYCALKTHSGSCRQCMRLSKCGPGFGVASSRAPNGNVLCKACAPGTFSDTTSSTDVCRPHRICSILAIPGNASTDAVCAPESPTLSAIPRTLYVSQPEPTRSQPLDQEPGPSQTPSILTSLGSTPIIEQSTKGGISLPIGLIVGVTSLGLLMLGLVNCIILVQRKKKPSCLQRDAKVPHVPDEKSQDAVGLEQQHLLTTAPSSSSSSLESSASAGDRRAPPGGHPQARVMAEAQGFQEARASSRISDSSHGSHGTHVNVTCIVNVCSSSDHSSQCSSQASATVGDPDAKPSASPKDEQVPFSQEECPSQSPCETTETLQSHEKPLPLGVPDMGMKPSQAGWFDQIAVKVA

[3] = molecular target: T3, mTNFRII (Sinobioologicals Cat No. 50128 M08H) (mouse, UniProt P25119 23-258, limits assumed); experiment: blocking ELISA, coated mTNFRII, competitor mTNF-α 2 nM
T3 construct: bought
T3 sequence (looked up): T1 sequence (looked up)
Experimental: 96-well plates were coated with hTNFRII (Sinobioologicals Cat nr10414-H08H) or mTNFRII (Sinobioologicals Cat No. 50128 M08H) at 2.5 pmol/well in ELISA coating buffer (0.1 M sodium carbonate pH 9.5) and incubated overnight at 4° C. After washing in ELISA wash buffer (PBS with 0.05% Tween20), the plates were incubated under slow agitation for 1 h in room temperature with n-CoDeR® mAbs at 10 μg/ml (one-dose ELISA) or 33 nM and subsequent 1:2 dilutions (titration ELISA) in block buffer containing 0.45% fish gelatin. […] Thereafter, plates were washed. For the human ELISAs, Streptavidin-HRP (Jackson Cat No. 016-030-084) diluted 1:2000 in block buffer were added and again incubated for 1 h at room temperature followed by washes first in ELISA buffer and then in Tris buffer (pH 9.8). The substrate (Super Signal ELISA Pico from Thermo Scientific Cat. No. 37069) were thereafter diluted according to the manufacturers instruction, added to the wells and incubated in darkness for 10 min before reading in a Tecan Ultra. […] After washing, anti-Rabbit-HRP diluted 1:10 000 in block buffer was added and again incubated for 1 h at room temperature. Substrate adding and reading were performed as above.

B1: 003-F10 (antibody, V domains shown)
VH: EVQLLESGGGLVQPGGSLRLSCAASGFTFSDAWMTWVRQAPGKGLEWVSDLSDSGGSTYYADSVKGRFTISRDNSKNTLYLQMNSLRAEDTAVYYCGRLAAGGPVDYWGQGTLVTVSS
VL: QSVLTQPPSASGTPGQRVTISCTGSSSNIGAGYDVHWYQQLPGTAPKLLIYSNNQRPSGVPDRFSGSKSGTSASLAISGLRSEDEADYYCSVWDDSLNSWVFGGGTKLTVLG
notes: also called 3-F10 (mouse)
In the case of B1, the EC50 [1] is reported as 0.97 nM, the EC50 [2] is reported as 0.072 nM and the EC50 [3] is reported as 1.9 nM.
